Results published in patent US20240287172A1 (SCIRHOM, published 2024).

How the values were obtained:
[1] = target: T1, dog iRhom2 full length wild type, T7-tagged (dog, UniProt Q00M95 1-827); experiment: FACS on MEF-DKO-iR2 Dog cells, 3 µg/ml
T1 construct: whole, on cells; on MEF-DKO cells; also called Dog-iR2-FL-WT-T7
T1 sequence: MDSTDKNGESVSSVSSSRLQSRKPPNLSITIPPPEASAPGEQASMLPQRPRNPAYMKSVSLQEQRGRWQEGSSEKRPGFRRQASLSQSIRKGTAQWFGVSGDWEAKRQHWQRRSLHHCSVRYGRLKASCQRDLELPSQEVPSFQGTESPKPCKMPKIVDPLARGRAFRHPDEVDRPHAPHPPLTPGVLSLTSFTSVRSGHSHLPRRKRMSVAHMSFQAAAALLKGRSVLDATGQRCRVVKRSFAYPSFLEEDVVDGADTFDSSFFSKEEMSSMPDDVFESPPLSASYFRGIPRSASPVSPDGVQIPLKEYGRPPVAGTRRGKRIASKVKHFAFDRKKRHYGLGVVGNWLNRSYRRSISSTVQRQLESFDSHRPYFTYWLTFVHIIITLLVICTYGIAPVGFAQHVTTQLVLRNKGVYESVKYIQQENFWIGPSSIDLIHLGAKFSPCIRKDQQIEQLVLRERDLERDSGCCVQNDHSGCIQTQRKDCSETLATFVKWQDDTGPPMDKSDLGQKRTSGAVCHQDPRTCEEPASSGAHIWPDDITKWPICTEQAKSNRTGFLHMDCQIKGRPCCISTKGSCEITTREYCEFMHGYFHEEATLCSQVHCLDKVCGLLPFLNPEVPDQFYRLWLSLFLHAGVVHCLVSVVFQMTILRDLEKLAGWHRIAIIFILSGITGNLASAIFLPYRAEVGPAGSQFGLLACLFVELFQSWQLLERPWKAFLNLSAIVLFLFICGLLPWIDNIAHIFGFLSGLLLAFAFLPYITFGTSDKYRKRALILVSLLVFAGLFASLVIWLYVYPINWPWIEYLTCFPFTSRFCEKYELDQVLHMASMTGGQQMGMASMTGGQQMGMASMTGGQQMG
Method: In brief, immortalized MEF-DKO-EV control cells, MEF-DKO-rhesus-iR2-FL-WT-T7 cells, MEF-DKO-cyno-iR2-FL-WT-T7 cells, MEF-DKO-dog-iR2-FL-WT-T7 cells and MEF-DKO-rabbit-iR2-FL-WT-T7 cells, as well as their respective iRhom1 counterparts, were harvested with 10 mM EDTA in PBS, washed and resuspended in FACS buffer (PBS, 3% FBS, 0.05% sodium azide), and seeded in Nunc U-bottom 96-well plates (Thermo Fisher Scientific, USA) at approximately 3×10⁵ cells per well. To pellet cells and remove supernatants, the plates were centrifuged at 1,500 rpm and 4° C. for 3 minutes. For primary staining, cells were resuspended in 100 μl per well of either FACS buffer alone (controls), mouse monoclonal anti-T7 IgG (Merck Millipore, USA) at 3 μg/ml FACS buffer or the antibodies of the invention also at 3 μg/ml FACS buffer and incubated on ice for 1 hour.
Afterwards, plates were centrifuged at 1,500 rpm and 4° C. for 3 minutes and washed twice with 200 μl per well of FACS buffer. For secondary staining, cells were spun down and resuspended in 100 μl per well of PE-conjugated goat anti-mouse IgG F(ab′)2 detection fragment (Dianova, Germany) diluted 1:100 in FACS buffer. Protected from light, the cell suspensions were incubated on ice for 1 hour. […] Finally, cells were resuspended in 150 μl per well of FACS buffer and analyzed using a BD Accuri™ C6 Plus flow cytometer (Becton Dickinson, Germany).

hiR2-FL-I566E-T7 = target: T2, hiR2-FL-I566E-T7 (human, UniProt Q6PJF5 1-856); experiment: FACS on MEF-DKO cells
T2 construct: on MEF-DKO cells; also called hiR2-FL-1566E-T7
T2 sequence: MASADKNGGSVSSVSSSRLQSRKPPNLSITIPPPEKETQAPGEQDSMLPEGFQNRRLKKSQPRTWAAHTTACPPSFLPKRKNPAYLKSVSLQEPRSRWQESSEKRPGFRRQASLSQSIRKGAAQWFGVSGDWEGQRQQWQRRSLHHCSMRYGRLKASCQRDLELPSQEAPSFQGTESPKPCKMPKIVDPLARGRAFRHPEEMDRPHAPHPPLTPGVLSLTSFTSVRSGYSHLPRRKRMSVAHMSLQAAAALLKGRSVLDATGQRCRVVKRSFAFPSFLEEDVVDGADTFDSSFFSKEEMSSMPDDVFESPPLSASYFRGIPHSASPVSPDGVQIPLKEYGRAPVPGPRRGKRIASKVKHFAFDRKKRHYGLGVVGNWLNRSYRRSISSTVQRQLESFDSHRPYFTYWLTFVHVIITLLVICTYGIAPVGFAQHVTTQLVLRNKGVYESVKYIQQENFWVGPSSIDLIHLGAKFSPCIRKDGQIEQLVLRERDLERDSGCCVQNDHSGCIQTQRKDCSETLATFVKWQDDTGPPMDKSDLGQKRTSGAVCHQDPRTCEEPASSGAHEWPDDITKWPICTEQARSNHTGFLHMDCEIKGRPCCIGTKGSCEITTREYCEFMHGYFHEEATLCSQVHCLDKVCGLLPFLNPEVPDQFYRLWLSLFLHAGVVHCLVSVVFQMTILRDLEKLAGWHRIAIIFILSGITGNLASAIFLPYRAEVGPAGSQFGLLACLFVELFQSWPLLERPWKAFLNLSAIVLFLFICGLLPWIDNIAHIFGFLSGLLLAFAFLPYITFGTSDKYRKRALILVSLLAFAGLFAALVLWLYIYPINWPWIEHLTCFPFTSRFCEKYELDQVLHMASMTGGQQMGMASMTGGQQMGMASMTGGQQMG

B1: antibody 16 (antibody, V domains shown)
VH: QVTLKESGPGILQPSQTLSLTCSFSGFSLSTFALGVGWIRQPSGRGLEWLAHIWWDDDKYYNPALKSRLTISKDTSKNHVFLKIANVDTADTATYYCARITTYYYGMDYWGQGTSVTVSS
VL: DIVLSQSPATLSVTPGDSVSLFCRASQSIGNHLHWYQQESHASPRLLIKYASQSISGIPSRFSGSGSGTDFTLSINSVETEDFGMYFCQQSYNWPLTFGAGTKLELK
notes: mouse IgG, kappa light chain; also called clone #16; purified antibody 16
binding result [1]: binds

B2: antibody 5 (antibody, V domains shown)
VH: QVTLKESGPGILQPSQTLSLTCSFSGFSLSTFGMGVGWIRQPSGKGLEWLAHIWWDDEKYYNSALKSRLTISKATSKNQAFLKIANVDTADTATYYCARISNYGSNYWYFNVWGTGTTVTVSS
VL: QVVLTQSPALMSASPGEKVTMTCSAGSSVSCMYWYQQKPGSSPRVLIYDTSNLASGVPARFTGSGSGTSYSLTISRMEAEDAASYYCQQWNSYPLTFGAGTKLELK
notes: mouse IgG, kappa light chain; also called clone #5; purified antibody 5
binding result (hiR2-FL-I566E-T7): no binding (tested: 3 µg/ml)
